Sequences and labels used below:
B1: anti-ROR1 monoclonal antibody A97 (antibody, V domains shown)
VH: EVQLQQSGPELEKPGASVKISCKASGYSFIGYSMNWVRQSDGKSLEWIGNIDPYYGGTSYNLKFKGKATLTVDKSSSTAYMQLKSLTSEDSAVYYCARLGRGYFDYWGQGTTLTVSS
VL: DIVLTQSPATLSVTPGDSVSLSCRASQSITNNLHWYQQKSHESPRLLIKSASQSISGIPSRFSGSGSGTDFTLSINSVETEDFGMYFCQQSNSWPHTFGGGTKLEIK
notes: Mouse monoclonal antibody from hybridoma
B2: anti-ROR1 monoclonal antibody A148 (antibody, V domains shown)
VH: DVQLQESGPGLVKPSQSLSLTCSVSGYSITSGYYWNWIRQFPGNKLEWMGYISNDGSNKYKPSLKNRISITRDTSKNQFFLKLNSVTTEDTATYYCARFPLINYDPWLAYWGQGTLVTVSA
VL: DVLMTQTPLSLPVSLGDQASISCRSSQNVVHRNGNTYLEWYLQKPGQSPKLLIYKVSNRFSGVPDRFSGSGSGTDFTLKISRVEAEDLGVYYCFQGSHVPWTFGGGTKLEIK
notes: as for B1
B3: anti-ROR1 monoclonal antibody A130 (antibody, V domains shown)
VH: DVQLQESGPGLVKPSQSLSLTCSVTGYSITSGYYWNWIRQFPGNKLEWMGYIRNDGSNNYNPSLKNRISITRDTSKNQFFLKLNSVTTEDTATYYCARFPLINYDPWFAYWGQGTLVTVSA
VL: ETTVTQSPASLSVATGEKVTIRCITSTDIDDDMNWYQQKPGEPPKLLISEANTLRPGVPSRFSSSGYGTDFVFTIENTLSEDVADYYCLQSYNMPLTFGAGTTLELK
notes: as for B1
B4: anti-ROR1 monoclonal antibody A142 (antibody, V domains shown)
VH: EVQLQQSGPDLVKPGASVKISCKASGYSFTGYYMHWVKQSHGKSLEWIGRVYPNNGGTSYNQKFKGKAILTVDKSSTTAYMELRSLTSEDSAVYYCALIHYYGFYSMDYWGQGTSVTVSS
VL: DVLMTQTPLSLPVSLGDQASISCRSSQSIVHSNGNTYLEWYLQKPGQSPKLLIYKVSNRFSGVPDRFSGSGSGTDFTLKISRVEAEDLGVYYCFQGSHVPWTFGGGTKLEIN
notes: as for B1
B5: anti-ROR1 monoclonal antibody A140 (antibody, V domains shown)
VH: DVQLQESGPGLVKPSQSLSLTCSVSGYSITSGYYWNWIRQFPGNKLEWMGYISNDGNNKYKPSLKNRISITRDTSKNQFFLKLNSVTAEDTATYYCARFPLINYDPWLAYWGQGTLVTVSA
VL: DVLMTQTPLSLPVSLGDQASISCRSSQSIVHSNGNTYLEWYLQKPGQSPKLLIYKVSNRFSGVPDRFSGSGSGTDFTLKISRVEAEDLGVYYCFQGSHVPWTFGGGTKLEIN
notes: as for B1
B6: anti-ROR1 monoclonal antibody A129 (antibody, V domains shown)
VH: DVQLQESGPGLVKPSQSLSLTCSVTGYSITSGYYWNWIRQFPGNKLEWMGYIRNDGSNNYNPSLKNRISITRDTSKNQFFLKLNSVTTEDTATYYCARFPLINYDPWFAYWGQGTLVTVSA
VL: DVLMTQAPLSLPVSLGDQASISCRSSQNVVHRNGNTYLEWYLQKPGQSPKLLIYKVSNRFSGVPDRFSGSGSGTDFTLKISRVEAEDLGVYYCFQGSHVPWTFGGGTKLEIK
notes: as for B1
B7: anti-ROR1 monoclonal antibody A89 (antibody, V domains shown)
VH: DVQLQESGPGLVKPSQSLSLTCSVSGYSITSGYYWSWIRQFPGNKLEWMGYISNDGSNKYKPSLKNRISITRDTSKNQFFLKLKSVTTEDTATYYCARFPLINYDPWLAYWGQGTLVTVSA
VL: DVLMTQTPLSLPVSLGDQASISCRSSQSIVHSNGNTYLEWYLQKPGQSPKLLIYKVSNRFSGVPDRFSGSGSGTDFTLKISRVEAEDLGVYYCFQGSHVPWTFGGGTKLEIN
notes: Mouse monoclonal antibody from hybridoma (BALB/c mice immunized with ROR1-expressing L cells)

The target of this assay is T1, human receptor tyrosine kinase like orphan receptor 1 (ROR1) expressed on cells (human, UniProt Q01973 30-937).
T1 construct: whole, on cells; also called human ROR1; ROR1-L cells
In words: cell ELISA and flow cytometry on L cells transfected with human ROR1; also positive staining of ROR1+ lymphoma lines Jeko-1, SP-53, CA46.
B1: the binding result is listed as “binds”.

Regarding B2, the binding result is on record as “binds”.

Regarding B3, the binding result is on record as “binds”.

For B4, the binding result is reported as “binds”.

Turning to B5, the binding result is “binds”.

As for B6, the binding result is reported as “binds”.

With B7, the binding result is recorded as “binds”.

Source of the values: patent publication US20250222105A1 (University of Texas, published 2025).
